Data from paper PMC7046344.

T1: Spn-F-FLAG, Q9V9Y9
T1 chain: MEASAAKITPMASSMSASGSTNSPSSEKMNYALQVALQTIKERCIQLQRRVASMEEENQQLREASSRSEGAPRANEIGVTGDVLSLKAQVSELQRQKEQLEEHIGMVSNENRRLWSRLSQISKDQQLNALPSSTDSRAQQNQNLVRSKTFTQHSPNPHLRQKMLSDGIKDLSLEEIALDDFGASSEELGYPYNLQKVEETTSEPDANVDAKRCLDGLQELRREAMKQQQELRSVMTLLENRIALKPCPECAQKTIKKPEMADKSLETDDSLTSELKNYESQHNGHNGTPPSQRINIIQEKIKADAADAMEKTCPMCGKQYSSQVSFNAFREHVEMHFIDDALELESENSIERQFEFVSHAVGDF

B1: myc-Rab11, O18335 S25N (protein)
chain: MGAREDEYDYLFKVVLIGDSGVGKNNLLSRFTRNEFNLESKSTIGVEFATRSIEVDGKTIKAQIWDTAGQERYRAITSAYYRGAVGALLVYDIAKHLTYENVERWLRELRDHADQNIVIMLVGNKSDLRHLRSVPTDEAKLFAERNGLSFIETSALDSTNVETAFQNILTEIYRIVSQKQIRDPPEGDVIRPSNVEPIDVKPTVTADVRKQCCQ

Columns and labels:
[1] = molecular target: Spn-F-FLAG (UniProt Q9V9Y9); assay: co-immunoprecipitation (IP anti-FLAG, IB myc, band ratio by ImageJ); details: lysates of S2 cells co-expressing SpnF-FLAG and myc-Rab11; parent: 1
[2] = molecular target: T1, Spn-F-FLAG, Q9V9Y9; assay: as above; details: chain shown with the change; lysates of S2 cells co-expressing SpnF-FLAG and myc-Rab11; parent: 1

Molecule	other: myc/FLAG ratio [1]	other: myc/FLAG ratio [2]
myc-Rab11 (from UniProt O18335) CA	0.14	
B1		1.07
